Assay results published in patent publication US20250313864, “TYPE V CAS PROTEINS AND APPLICATIONS THEREOF” (Alia Therapeutics Srl, published 2025).

What was measured:
Assay in all cases: cell_activity; PAM TTTA; U2OS; with at least one of g1/g2, which one not given
Conditions in all cases: tags: V5 tag, C-terminal NLS; hairpin
ZZGY Type V-A Cas = biological target: T1, ZZGY Type V-A Cas (unidentified)
T1 chain: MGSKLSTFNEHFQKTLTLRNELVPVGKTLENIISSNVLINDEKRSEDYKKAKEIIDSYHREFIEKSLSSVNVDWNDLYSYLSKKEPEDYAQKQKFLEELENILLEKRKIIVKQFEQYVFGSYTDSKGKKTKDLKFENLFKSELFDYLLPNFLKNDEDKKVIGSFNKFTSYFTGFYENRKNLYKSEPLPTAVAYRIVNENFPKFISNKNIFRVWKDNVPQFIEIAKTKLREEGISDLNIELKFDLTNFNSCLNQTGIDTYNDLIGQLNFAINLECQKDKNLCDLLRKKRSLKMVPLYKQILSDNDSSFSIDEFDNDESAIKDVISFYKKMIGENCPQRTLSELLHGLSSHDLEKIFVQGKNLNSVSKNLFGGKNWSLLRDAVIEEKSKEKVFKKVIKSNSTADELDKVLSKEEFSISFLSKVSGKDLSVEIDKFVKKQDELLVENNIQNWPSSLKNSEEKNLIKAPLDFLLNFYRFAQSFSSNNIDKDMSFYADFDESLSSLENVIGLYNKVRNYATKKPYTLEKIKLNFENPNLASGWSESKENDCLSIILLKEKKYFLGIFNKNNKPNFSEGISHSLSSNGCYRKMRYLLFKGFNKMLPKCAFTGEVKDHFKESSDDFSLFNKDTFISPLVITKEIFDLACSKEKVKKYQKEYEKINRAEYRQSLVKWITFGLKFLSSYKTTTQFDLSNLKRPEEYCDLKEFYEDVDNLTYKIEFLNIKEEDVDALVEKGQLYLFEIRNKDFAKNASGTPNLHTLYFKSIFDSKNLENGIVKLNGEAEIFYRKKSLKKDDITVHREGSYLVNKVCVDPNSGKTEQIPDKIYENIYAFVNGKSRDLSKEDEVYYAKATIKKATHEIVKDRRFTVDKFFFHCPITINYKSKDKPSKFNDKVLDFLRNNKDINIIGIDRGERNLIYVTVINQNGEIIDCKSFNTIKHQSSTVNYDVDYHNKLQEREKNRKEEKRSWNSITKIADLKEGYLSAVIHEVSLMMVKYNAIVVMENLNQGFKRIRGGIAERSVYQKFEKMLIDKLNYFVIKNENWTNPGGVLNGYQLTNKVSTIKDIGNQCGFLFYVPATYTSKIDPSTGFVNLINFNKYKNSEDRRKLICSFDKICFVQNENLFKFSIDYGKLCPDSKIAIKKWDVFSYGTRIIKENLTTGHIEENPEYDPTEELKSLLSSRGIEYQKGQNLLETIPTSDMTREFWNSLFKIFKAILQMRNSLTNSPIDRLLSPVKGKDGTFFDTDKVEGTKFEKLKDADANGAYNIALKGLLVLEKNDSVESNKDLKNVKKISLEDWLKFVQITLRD

ZXPB Type V-A Cas = biological target: T2, ZXPB Type V-A Cas (unidentified)
T2 chain: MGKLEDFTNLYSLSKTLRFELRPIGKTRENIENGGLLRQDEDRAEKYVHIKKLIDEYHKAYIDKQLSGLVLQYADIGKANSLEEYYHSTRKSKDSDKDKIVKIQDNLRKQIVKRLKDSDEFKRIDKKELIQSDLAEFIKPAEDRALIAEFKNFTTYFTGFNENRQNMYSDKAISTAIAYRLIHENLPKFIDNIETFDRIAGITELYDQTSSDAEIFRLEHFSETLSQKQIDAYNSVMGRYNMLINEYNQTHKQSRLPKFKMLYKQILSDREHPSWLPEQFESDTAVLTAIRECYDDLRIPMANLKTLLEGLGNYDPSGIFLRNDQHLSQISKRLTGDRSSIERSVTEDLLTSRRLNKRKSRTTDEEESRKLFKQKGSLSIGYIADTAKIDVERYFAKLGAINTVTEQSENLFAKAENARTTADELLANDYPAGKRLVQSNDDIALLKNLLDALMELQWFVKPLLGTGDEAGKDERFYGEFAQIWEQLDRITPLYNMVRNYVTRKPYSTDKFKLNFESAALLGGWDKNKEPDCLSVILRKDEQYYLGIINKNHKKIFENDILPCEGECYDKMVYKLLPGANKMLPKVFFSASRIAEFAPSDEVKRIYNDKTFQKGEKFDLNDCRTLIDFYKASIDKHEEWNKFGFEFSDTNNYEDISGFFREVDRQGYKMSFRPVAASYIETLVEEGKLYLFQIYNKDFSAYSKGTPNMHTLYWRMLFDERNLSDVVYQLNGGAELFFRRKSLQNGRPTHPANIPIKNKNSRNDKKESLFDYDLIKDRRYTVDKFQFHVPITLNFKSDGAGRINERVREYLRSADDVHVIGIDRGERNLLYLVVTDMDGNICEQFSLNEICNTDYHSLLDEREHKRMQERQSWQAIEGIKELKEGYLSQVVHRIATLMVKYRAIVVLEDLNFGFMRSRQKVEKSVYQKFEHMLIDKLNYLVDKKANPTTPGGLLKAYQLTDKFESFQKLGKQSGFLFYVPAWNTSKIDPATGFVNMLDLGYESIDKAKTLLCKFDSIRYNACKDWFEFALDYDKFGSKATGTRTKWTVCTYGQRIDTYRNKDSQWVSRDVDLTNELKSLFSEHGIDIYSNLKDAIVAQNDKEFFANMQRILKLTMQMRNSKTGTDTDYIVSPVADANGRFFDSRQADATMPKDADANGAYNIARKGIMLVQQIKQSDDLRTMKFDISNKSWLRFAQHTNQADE

ZJHK Type V-A Cas = biological target: T3, ZJHK Type V-A Cas (unidentified)
T3 chain: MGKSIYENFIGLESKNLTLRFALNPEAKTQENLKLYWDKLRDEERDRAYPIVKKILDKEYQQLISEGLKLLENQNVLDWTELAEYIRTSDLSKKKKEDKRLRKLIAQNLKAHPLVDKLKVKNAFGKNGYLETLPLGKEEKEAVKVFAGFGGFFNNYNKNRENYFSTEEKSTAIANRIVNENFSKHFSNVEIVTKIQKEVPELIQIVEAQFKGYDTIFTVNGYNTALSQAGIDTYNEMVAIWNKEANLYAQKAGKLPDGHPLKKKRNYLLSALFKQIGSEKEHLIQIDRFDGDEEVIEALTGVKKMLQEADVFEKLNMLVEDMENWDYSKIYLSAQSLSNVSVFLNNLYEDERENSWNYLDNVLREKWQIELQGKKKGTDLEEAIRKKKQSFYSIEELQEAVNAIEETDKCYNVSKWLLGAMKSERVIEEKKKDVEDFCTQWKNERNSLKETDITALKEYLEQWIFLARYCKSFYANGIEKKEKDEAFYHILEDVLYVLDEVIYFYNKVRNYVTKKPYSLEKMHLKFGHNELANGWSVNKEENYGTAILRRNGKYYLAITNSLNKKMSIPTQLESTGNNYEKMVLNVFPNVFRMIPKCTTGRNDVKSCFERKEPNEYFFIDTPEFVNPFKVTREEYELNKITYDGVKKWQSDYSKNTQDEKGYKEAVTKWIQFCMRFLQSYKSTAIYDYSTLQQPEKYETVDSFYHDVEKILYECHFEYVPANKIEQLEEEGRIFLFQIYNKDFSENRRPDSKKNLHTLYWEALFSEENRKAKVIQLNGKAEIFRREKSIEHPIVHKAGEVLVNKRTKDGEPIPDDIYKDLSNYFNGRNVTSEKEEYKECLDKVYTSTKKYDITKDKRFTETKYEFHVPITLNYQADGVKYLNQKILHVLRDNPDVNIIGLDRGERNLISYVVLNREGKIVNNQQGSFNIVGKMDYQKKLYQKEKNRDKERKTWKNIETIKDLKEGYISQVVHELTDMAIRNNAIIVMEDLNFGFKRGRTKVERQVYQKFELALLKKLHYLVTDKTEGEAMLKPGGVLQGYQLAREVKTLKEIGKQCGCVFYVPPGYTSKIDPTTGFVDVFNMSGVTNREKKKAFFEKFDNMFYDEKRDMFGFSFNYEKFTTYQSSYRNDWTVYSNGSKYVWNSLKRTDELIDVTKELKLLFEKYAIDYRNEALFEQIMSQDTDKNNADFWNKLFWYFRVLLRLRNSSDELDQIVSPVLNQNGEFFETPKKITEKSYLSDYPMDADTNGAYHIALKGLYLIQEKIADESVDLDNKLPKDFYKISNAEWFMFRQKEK

B1: ZZGY crRNA EGFP-g1 ; EGFP-g1 target (ssRNA ; dsDNA)
RNA: UCUAAAGCUCUUUAAGAAUUUCUACUUUCGUAGAUCGUCGCCGUCCAGCUCGACCAGG
DNA 1: TTTACGTCGCCGTCCAGCTCGACCAGG
DNA 2: CCTGGTCGAGCTGGACGGCGACGTAAA
activity (ZZGY Type V-A Cas): > 20 % EGFP KO

B2: ZXPB crRNA EGFP-g1 ; EGFP-g1 target (ssRNA ; dsDNA)
RNA: GGCUAUAAAAGCCAUAUAAUUUCUACUAUUGUAGAUCGUCGCCGUCCAGCUCGACCAGG
DNA 1: TTTACGTCGCCGTCCAGCTCGACCAGG
DNA 2: CCTGGTCGAGCTGGACGGCGACGTAAA
activity (ZXPB Type V-A Cas): > 20 % EGFP KO

B3: ZJHK crRNA EGFP-g1 ; EGFP-g1 target (ssRNA ; dsDNA)
RNA: CUUUGAAAGAAUAUAAUUUCUACUGAAAGUGUAGAUCGUCGCCGUCCAGCUCGACCAGG
DNA 1: TTTACGTCGCCGTCCAGCTCGACCAGG
DNA 2: CCTGGTCGAGCTGGACGGCGACGTAAA
activity (ZJHK Type V-A Cas): > 20 % EGFP KO
